Data reported in patent US11111484B2, “Streptococcus bacteriophage lysins for detection and treatment of gram positive bacteria” (priority 2011, dated 2021).

What was measured:
Assay in all cases: ΔPlySs1 OD600 lysis, 1 hr, optimal buffering conditions
Assay type in all cases: cell-based, Streptococcus suis
S. suis 10 (ST2) = tested on: S. suis 10 (ST2)
Method: (§1) Truncated PlySs1(ΔPlySs1) lysin activity was determined against different cell types. Given the above experiments, the following optimal buffering conditions were employed for all further in vitro experiments with ΔPlySs1: 20 mM phosphate buffer, pH=7.8, 2 mM EDTA. A range of lysin concentrations, from 6.5-130 μg/ml, were introduced to live S. suis cells in this buffer. Three strains were considered particularly relevant: 7711, the serotype 7 strain that encodes PlySs1; S735, the serotype 2 reference strain; and 7997, a highly virulent serotype 9 strain. In terms of bacterial viability, only the highest PlySs1-concentration (130 μg/ml) led to a >90% decrease in CFUs for 7711, S735, and 7997 after 1 hr treatment (TABLE 2). The lysin was also tested against actively-dividing cells in broth culture (strain 7711) (FIG. 20).
(§2) ΔPlySs1 was further tested against a panel of 19 other S. suis strains of diverse serotypes, as well as other species of Gram-positive bacteria. The same lysin concentrations were used as above. For each dosage, the observed lysis values after 1 hr are listed in TABLE 3 and TABLE 4, and the information is summarized graphically in FIG. 21.

S. suis 6112 (ST1) = tested on: S. suis 6112 (ST1)
Method: as §1, §2

S. suis 6388 (ST1) = tested on: S. suis 6388 (ST1)
Method: as §1, §2

S. suis 7197 (ST7) = tested on: S. suis 7197 (ST7)
Method: as §1, §2

S. suis ST10 = tested on: S. suis ST10
Method: as §1, §2

S. suis ST11 = tested on: S. suis ST11
Method: as §1, §2

S. suis ST13 = tested on: S. suis ST13
Method: as §1, §2

S. suis ST14 = tested on: S. suis ST14
Method: as §1, §2

S. suis ST2 = tested on: S. suis ST2
Method: as §1, §2

S. suis ST3 = tested on: S. suis ST3
Method: as §1, §2

S. suis ST5 = tested on: S. suis ST5
Method: as §1, §2

S. suis ST6 = tested on: S. suis ST6
Method: as §1, §2

S. suis ST7 = tested on: S. suis ST7
Method: as §1, §2

S. suis ST8 = tested on: S. suis ST8
Method: as §1, §2

S. suis ST9 = tested on: S. suis ST9
Method: as §1, §2

B1: ΔPlySs1: truncated PlySs1 lysin, SEQ ID NO:2, N-terminal 254 amino acids: only N-terminal enzymatic and central binding domains (protein, listed as Streptococcus suis)
chain: MTINLETSIRWMSDRVGKVSYSMDYRNGPNSYDCSSAVYYALMAGGAISAGWAVNTEYMHDWLIRNGYVLVAENKPFNAQRHDVCILGKRGYSSGAGGHVVIFVDNVNVIHCNYARNGISIDNYNQVHRGMYYYLYRPANQPSISNKSLDQLVKETLAGVHGNGDTRKASLGSQYEAVMAVINGKASASEKSDEELAREVLAGKHGAGEDRKRSLGPRYEPVQAKVNELLKAKEKPSETAKNEPQTVQFKEDGDL
1-hour treated/untreated OD600-ratio (S. suis 10 (ST2); 6.5 μg/ml): 0.29 | 1-hour treated/untreated OD600-ratio (S. suis 10 (ST2); 13 μg/ml): 0.18 | 1-hour treated/untreated OD600-ratio (S. suis 10 (ST2); 30 μg/ml): 0.10 | 1-hour treated/untreated OD600-ratio (S. suis 10 (ST2); 65 μg/ml): 0.05 | 1-hour treated/untreated OD600-ratio (S. suis 10 (ST2); 130 μg/ml): 0.02 | 1-hour treated/untreated OD600-ratio (S. suis 6112 (ST1); 6.5 μg/ml): 0.14 | 1-hour treated/untreated OD600-ratio (S. suis 6112 (ST1); 13 μg/ml): 0.11 | 1-hour treated/untreated OD600-ratio (S. suis 6112 (ST1); 30 μg/ml): 0.06 | 1-hour treated/untreated OD600-ratio (S. suis 6112 (ST1); 65 μg/ml): 0.02 | 1-hour treated/untreated OD600-ratio (S. suis 6112 (ST1); 130 μg/ml): 0.01 | 1-hour treated/untreated OD600-ratio (S. suis 6388 (ST1); 6.5 μg/ml): 0.15 | 1-hour treated/untreated OD600-ratio (S. suis 6388 (ST1); 13 μg/ml): 0.13 | 1-hour treated/untreated OD600-ratio (S. suis 6388 (ST1); 30 μg/ml): 0.06 | 1-hour treated/untreated OD600-ratio (S. suis 6388 (ST1); 65 μg/ml): 0.03 | 1-hour treated/untreated OD600-ratio (S. suis 6388 (ST1); 130 μg/ml): 0.02 | 1-hour treated/untreated OD600-ratio (S. suis 7197 (ST7); 6.5 μg/ml): 0.64 | 1-hour treated/untreated OD600-ratio (S. suis 7197 (ST7); 13 μg/ml): 0.49 | 1-hour treated/untreated OD600-ratio (S. suis 7197 (ST7); 30 μg/ml): 0.39 | 1-hour treated/untreated OD600-ratio (S. suis 7197 (ST7); 65 μg/ml): 0.16 | 1-hour treated/untreated OD600-ratio (S. suis 7197 (ST7); 130 μg/ml): 0.07 | 1-hour treated/untreated OD600-ratio (S. suis ST10; 6.5 μg/ml): 0.85 | 1-hour treated/untreated OD600-ratio (S. suis ST10; 13 μg/ml): 0.72 | 1-hour treated/untreated OD600-ratio (S. suis ST10; 30 μg/ml): 0.55 | 1-hour treated/untreated OD600-ratio (S. suis ST10; 65 μg/ml): 0.44 | 1-hour treated/untreated OD600-ratio (S. suis ST10; 130 μg/ml): 0.28 | 1-hour treated/untreated OD600-ratio (S. suis ST11; 6.5 μg/ml): 0.64 | 1-hour treated/untreated OD600-ratio (S. suis ST11; 13 μg/ml): 0.47 | 1-hour treated/untreated OD600-ratio (S. suis ST11; 30 μg/ml): 0.32 | 1-hour treated/untreated OD600-ratio (S. suis ST11; 65 μg/ml): 0.19 | 1-hour treated/untreated OD600-ratio (S. suis ST11; 130 μg/ml): 0.07 | 1-hour treated/untreated OD600-ratio (S. suis ST13; 6.5 μg/ml): 0.32 | 1-hour treated/untreated OD600-ratio (S. suis ST13; 13 μg/ml): 0.17 | 1-hour treated/untreated OD600-ratio (S. suis ST13; 30 μg/ml): 0.04 | 1-hour treated/untreated OD600-ratio (S. suis ST13; 65 μg/ml): 0.02 | 1-hour treated/untreated OD600-ratio (S. suis ST13; 130 μg/ml): 0.02 | 1-hour treated/untreated OD600-ratio (S. suis ST14; 6.5 μg/ml): 0.79 | 1-hour treated/untreated OD600-ratio (S. suis ST14; 13 μg/ml): 0.57 | 1-hour treated/untreated OD600-ratio (S. suis ST14; 30 μg/ml): 0.33 | 1-hour treated/untreated OD600-ratio (S. suis ST14; 65 μg/ml): 0.15 | 1-hour treated/untreated OD600-ratio (S. suis ST14; 130 μg/ml): 0.06 | 1-hour treated/untreated OD600-ratio (S. suis ST2; 6.5 μg/ml): 0.79 | 1-hour treated/untreated OD600-ratio (S. suis ST2; 13 μg/ml): 0.70 | 1-hour treated/untreated OD600-ratio (S. suis ST2; 30 μg/ml): 0.49 | 1-hour treated/untreated OD600-ratio (S. suis ST2; 65 μg/ml): 0.34 | 1-hour treated/untreated OD600-ratio (S. suis ST2; 130 μg/ml): 0.17 | 1-hour treated/untreated OD600-ratio (S. suis ST3; 6.5 μg/ml): 0.81 | 1-hour treated/untreated OD600-ratio (S. suis ST3; 13 μg/ml): 0.71 | 1-hour treated/untreated OD600-ratio (S. suis ST3; 30 μg/ml): 0.48 | 1-hour treated/untreated OD600-ratio (S. suis ST3; 65 μg/ml): 0.32 | 1-hour treated/untreated OD600-ratio (S. suis ST3; 130 μg/ml): 0.16 | 1-hour treated/untreated OD600-ratio (S. suis ST5; 6.5 μg/ml): 0.78 | 1-hour treated/untreated OD600-ratio (S. suis ST5; 13 μg/ml): 0.59 | 1-hour treated/untreated OD600-ratio (S. suis ST5; 30 μg/ml): 0.39 | 1-hour treated/untreated OD600-ratio (S. suis ST5; 65 μg/ml): 0.22 | 1-hour treated/untreated OD600-ratio (S. suis ST5; 130 μg/ml): 0.10 | 1-hour treated/untreated OD600-ratio (S. suis ST6; 6.5 μg/ml): 0.76 | 1-hour treated/untreated OD600-ratio (S. suis ST6; 13 μg/ml): 0.56 | 1-hour treated/untreated OD600-ratio (S. suis ST6; 30 μg/ml): 0.40 | 1-hour treated/untreated OD600-ratio (S. suis ST6; 65 μg/ml): 0.21 | 1-hour treated/untreated OD600-ratio (S. suis ST6; 130 μg/ml): 0.06 | 1-hour treated/untreated OD600-ratio (S. suis ST7; 6.5 μg/ml): 0.65 | 1-hour treated/untreated OD600-ratio (S. suis ST7; 13 μg/ml): 0.47 | 1-hour treated/untreated OD600-ratio (S. suis ST7; 30 μg/ml): 0.34 | 1-hour treated/untreated OD600-ratio (S. suis ST7; 65 μg/ml): 0.22 | 1-hour treated/untreated OD600-ratio (S. suis ST7; 130 μg/ml): 0.11 | 1-hour treated/untreated OD600-ratio (S. suis ST8; 6.5 μg/ml): 0.25 | 1-hour treated/untreated OD600-ratio (S. suis ST8; 13 μg/ml): 0.12 | 1-hour treated/untreated OD600-ratio (S. suis ST8; 30 μg/ml): 0.06 | 1-hour treated/untreated OD600-ratio (S. suis ST8; 65 μg/ml): 0.03 | 1-hour treated/untreated OD600-ratio (S. suis ST8; 130 μg/ml): 0.03 | 1-hour treated/untreated OD600-ratio (S. suis ST9; 6.5 μg/ml): 0.50 | 1-hour treated/untreated OD600-ratio (S. suis ST9; 13 μg/ml): 0.30 | 1-hour treated/untreated OD600-ratio (S. suis ST9; 30 μg/ml): 0.23 | 1-hour treated/untreated OD600-ratio (S. suis ST9; 65 μg/ml): 0.13 | 1-hour treated/untreated OD600-ratio (S. suis ST9; 130 μg/ml): 0.05
